Consider six molecules from patent publication US20250154287A1 (Pfizer, published 2025).

Test [1] addresses recombinant human CD3 epsilon (human, UniProt P07766 23-126, limits assumed). Kind of test: SPR. (SPR reads the build-up and loss of mass on a sensor chip optically.)
Test [2] addresses T1, human membrane IgA (mIgA), endogenously expressed on primary B cells and DAKIKI cells (human, UniProt P01876 1-398). Kind of test: cell-based or functional assay.
Test [3] deals with cynomolgus monkey membrane IgA (cynomolgus monkey). The test is described as follows: cell-based or functional assay.
For test [4], the target named is T1, human membrane IgA (mIgA), endogenously …. The test is described as follows: cell-based or functional assay. This is another data set of the same source.
For test [5] the target is unchanged. The test is described as follows: cell-based or functional assay. The source holds these as a separate data set.
Test [6] deals with T2, human membrane IgA overexpressed on Ramos cells (human).
T2 construct: its MIGIS-α segment is the short form; also called IgA^+ Ramos; human IgA^+ RAMOS cells
The test is described as follows: flow cytometry on human IgA+ Ramos cells, mean of 3 experiments. A general note: Flow cytometry measures light scatter and fluorescence of single cells or particles in a stream.

Test [7] deals with T1, human membrane IgA (mIgA), endogenously …. Kind of test: flow cytometry on primary human IgA+ memory B cells, mean of 3 donors.
Test [8] deals with T3, parental (IgA^-) Ramos cell line, which expresses only cell surface IgM (UniProt P01871 1-474).
T3 construct: whole, on cells; Negative control cells without membrane IgA; also called mIgA negative Ramos cells; parental Ramos
Kind of test: flow cytometry on parental Ramos cells (IgM only), MFI minus background.

In test [9] the target is T4, membrane IgD on human IgD^+ (IgA^-) primary B cells (human, UniProt P01880 1-430).
T4 construct: whole, on cells; Negative control cell population without membrane IgA; also called CD19^+, IgD^+ B cell populations; IgD cells
T4 sequence (heavy, looked up): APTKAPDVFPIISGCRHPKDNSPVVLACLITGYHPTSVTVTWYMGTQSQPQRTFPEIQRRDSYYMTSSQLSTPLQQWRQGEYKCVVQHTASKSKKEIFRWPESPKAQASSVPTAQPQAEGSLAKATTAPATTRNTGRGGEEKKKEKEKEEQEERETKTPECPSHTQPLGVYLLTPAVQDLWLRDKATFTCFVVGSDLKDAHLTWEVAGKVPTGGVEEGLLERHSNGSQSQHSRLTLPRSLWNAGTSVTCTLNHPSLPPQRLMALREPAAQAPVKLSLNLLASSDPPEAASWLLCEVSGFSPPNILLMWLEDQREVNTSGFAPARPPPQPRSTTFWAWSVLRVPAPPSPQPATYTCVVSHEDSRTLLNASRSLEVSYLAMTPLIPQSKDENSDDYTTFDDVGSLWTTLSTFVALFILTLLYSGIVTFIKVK
Kind of test: flow cytometry on primary human B cells, gate IgD+ CD19+, MFI minus background.

In test [10] the target is T3, parental (IgA^-) Ramos cell line, which …. Kind of test: flow cytometry on parental Ramos cells.
Test [11] has as its target T2, human membrane IgA overexpressed on …. The test is described as follows: flow cytometry, cell binding on IgA+ Ramos cells; fit table under the plot.
Test [12] shares this target. Kind of test: flow cytometry, cell binding on IgA+ Ramos cells; fit table under the plot, unit from the y axis (gMFI minus secondary only).
Test [13] has the same target. The test is described as follows: flow cytometry on IgA+ Ramos cells.
For test [14] the target is unchanged. The test is described as follows: flow cytometry, cell binding on IgA+ Ramos cells; fit table under the plot (the text prints 2.9 nM).
The target of a further test is T5, Long MIGIS-α form (human).
T5 construct: fused to the N-terminus of the VH of Fab-0027 in the crystal; also called long MIGIS-α peptide; Long Form
T5 peptide: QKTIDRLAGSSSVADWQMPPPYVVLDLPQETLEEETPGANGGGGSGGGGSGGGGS
The test is described as follows: crystal structure.

For another test, the target named is T6, Short MIGIS-α form (human).
T6 construct: fused to the N-terminus of the VH of Fab-0027 in the crystal; also called Short Form
T6 peptide: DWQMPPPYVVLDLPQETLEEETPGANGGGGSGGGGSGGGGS
The test is described as follows: crystal structure.

In test [15] the target is T7, biotinylated human MIGIS-α peptide (human, biotinylated).
T7 peptide: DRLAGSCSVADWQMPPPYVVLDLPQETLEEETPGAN
The test is described as follows: SPR, OAA format.

Test [16] addresses T8, biotinylated cyno MIGIS-α peptide (cynomolgus monkey).
T8 construct: domain: MIGIS-α
The test is described as follows: SPR, OAA format.

For test [17], the target named is T2, human membrane IgA overexpressed on …. The test is described as follows: flow cytometry on IgA Ramos cells, OAA format; reference.
The target of test [18] is T7, biotinylated human MIGIS-α peptide. Kind of test: SPR (Biacore T200, 37 C), biotinylated peptide captured, OAA as analyte, 1:1 fit.
Test [19] deals with T8, biotinylated cyno MIGIS-α peptide. The description is as above.

T1 sequence (P01876 whole entry): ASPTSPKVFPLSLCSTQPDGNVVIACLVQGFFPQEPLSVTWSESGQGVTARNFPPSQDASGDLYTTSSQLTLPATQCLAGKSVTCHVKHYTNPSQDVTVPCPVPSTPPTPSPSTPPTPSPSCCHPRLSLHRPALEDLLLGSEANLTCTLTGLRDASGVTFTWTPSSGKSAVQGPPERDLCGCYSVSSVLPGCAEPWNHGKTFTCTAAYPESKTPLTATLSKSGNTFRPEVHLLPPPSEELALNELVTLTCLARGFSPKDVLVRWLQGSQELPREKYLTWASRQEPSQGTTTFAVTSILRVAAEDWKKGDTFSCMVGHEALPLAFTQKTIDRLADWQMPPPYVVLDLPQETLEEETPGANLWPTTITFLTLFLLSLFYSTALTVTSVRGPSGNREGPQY
T2 sequence (heavy, as listed by the source): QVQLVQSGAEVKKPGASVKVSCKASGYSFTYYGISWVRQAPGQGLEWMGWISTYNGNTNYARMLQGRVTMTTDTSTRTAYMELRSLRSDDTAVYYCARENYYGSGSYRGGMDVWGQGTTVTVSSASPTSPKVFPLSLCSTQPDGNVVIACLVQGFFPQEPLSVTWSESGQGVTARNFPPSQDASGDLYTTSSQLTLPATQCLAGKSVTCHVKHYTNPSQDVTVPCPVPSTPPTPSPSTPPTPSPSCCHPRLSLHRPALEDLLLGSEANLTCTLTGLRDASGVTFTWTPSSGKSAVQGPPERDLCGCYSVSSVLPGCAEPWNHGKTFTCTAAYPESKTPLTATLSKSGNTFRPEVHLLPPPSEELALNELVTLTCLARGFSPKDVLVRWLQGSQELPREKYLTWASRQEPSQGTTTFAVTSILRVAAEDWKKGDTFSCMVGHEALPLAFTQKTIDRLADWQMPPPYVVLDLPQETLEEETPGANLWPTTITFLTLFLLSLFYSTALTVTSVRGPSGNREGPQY
T3 sequence (P01871 whole entry): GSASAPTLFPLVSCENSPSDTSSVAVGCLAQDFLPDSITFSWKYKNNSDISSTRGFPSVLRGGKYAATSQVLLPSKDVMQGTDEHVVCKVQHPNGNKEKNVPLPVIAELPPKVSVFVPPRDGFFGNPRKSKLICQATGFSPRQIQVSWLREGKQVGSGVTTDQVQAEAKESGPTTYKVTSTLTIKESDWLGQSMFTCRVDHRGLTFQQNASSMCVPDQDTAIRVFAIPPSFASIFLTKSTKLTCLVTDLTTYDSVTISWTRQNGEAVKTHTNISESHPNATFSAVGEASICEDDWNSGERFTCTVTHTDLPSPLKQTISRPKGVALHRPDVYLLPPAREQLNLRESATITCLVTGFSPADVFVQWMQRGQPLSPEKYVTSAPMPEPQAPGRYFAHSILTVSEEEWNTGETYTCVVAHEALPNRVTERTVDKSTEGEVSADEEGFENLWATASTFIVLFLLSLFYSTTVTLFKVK
Chain of recombinant human CD3 epsilon (P07766 23-126 limits assumed): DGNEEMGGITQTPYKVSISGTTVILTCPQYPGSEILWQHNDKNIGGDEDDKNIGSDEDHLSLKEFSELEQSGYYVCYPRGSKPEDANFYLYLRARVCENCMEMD

B1: BMD-IgA-1156 (anti-CD3 binding arm h2B5v6) (antibody, V domains shown)
VH: EVQLVESGGGLVQPGGSLRLSCAASGFTFSDYYMTWVRQAPGKGLEWVAFIRNQARGYTSDHNPSVKGRFTISRDNAKNSLYLQMNSLRAEDTAVYYCARDRPSYYVLDYWGQGTTVTVSS
VL: DIQMTQSPSSLSASVGDRVTITCTSSQSLFNVRSQKNYLAWYQQKPGKAPKLLIYWASTRESGVPSRFSGSGSGTDFTLTISSLQPEDFATYYCKQSYDLFTFGGGTKVEIKR
notes: Only the anti-CD3 chains are tied to this name
The term Kd denotes the free concentration of one partner at which half of the binding sites on the other are occupied at equilibrium, for simple one-to-one binding. For the molecule B1, the Kd in test [1] came out at 17 nM.

B2: GBT-IgA-1602, anti-MIGIS-α/CD3 bispecific antibody (bispecific antibody)
heavy 1: not shown
light 1: not shown
heavy 2: EVQLVESGGGLVQPGGSLRLSCAASGFTFSDYYMTWVRQAPGKGLEWVAFIRNQARGYTSDHNPSVKGRFTISRDNAKNSLYLQMNSLRAEDTAVYYCARDRPSYYVLDYWGQGTTVTVSSASTKGPSVFPLAPSSKSTSGGTAALGCLVKDYFPEPVTVSWNSGALTSGVHTFPAVLQSSGLYSLSSVVTVPSSSLGTQTYICNVNHKPSNTKVDKKVEPKSCEKTHTCPPCPAPEAAGAPSVFLFPPKPKDTLMISRTPEVTCVVVDVSHEDPEVKFNWYVDGVEVHNAKTKPREEQYNSTYRVVSVLTVLHQDWLNGKEYKCKVSNKALPAPIEKTISKAKGQPREPQVYTLPPSREEMTKNQVSLTCEVKGFYPSDIAVEWESNGQPENNYKTTPPVLDSDGSFFLYSKLTVDKSRWQQGNVFSCSVMHEALHNHYTQKSLSLSPGK
light 2: DIQMTQSPSSLSASVGDRVTITCTSSQSLFNVRSQKNYLAWYQQKPGKAPKLLIYWASTRESGVPSRFSGSGSGTDFTLTISSLQPEDFATYYCKQSYDLFTFGGGTKVEIKRTVAAPSVFIFPPSDEQLKSGTASVVCLLNNFYPREAKVQWKVDNALQSGNSQESVTEQDSKDSTYSLSSTLTLSKADYEKHKVYACEVTHQGLSSPVTKSFNRGEC
The term EC50 denotes the concentration giving half of the maximal effect. In the case of B2, in test [2], the “Primary cell killing, potency EC50 (nM), human memory B cells (membrane IgA+)” value amounted to 0.73 nM and the “Primary cell killing, potency EC50 (nM), human plasma cells (IgA secreting)” value worked out at 1.67 nM. Moreover, in test [3], the “Primary cell killing, potency EC50 (nM), cyno memory membrane IgA+” value came out at 0.19 nM and the “Primary cell killing, potency EC50 (nM), cyno soluble plasma cells (IgA secreting)” value is 1.34 nM. Also, in test [4], the “EC50 (nM), IgA^+ memory B cell kill” value stood at 0.587 nM. Besides, in test [5], the “EC50 (nM), IgA producing B cell kill” value was found to be 1.5 nM. The same molecule displayed an EC50 in test [6] of 40.5 nM. Moreover, the EC50 in [7] was 49.8 nM. The binding result in test [8] is “no binding (tested: about 300 nM)”. The binding result in test [9] is listed as “no binding (tested: about 500 nM)”.

B3: GBT-IgA-0033 (H05) (antibody, V domains shown)
VH: QVQLVESGGGVVQPGRSLRLSCAASGFTFSSYGMHWVRQAPGKGLEWVAVISYDGSNKYYADSVKGRFTISRDNSKNTLYLQMNSLRAEDTAVYYCAKLYGGNPEDAIDYWGRGTLVTVSS
VL: not shown
notes: Parental clone from naive library; huIgG1; also called HOS
On to B3, for which the binding result in test [10] is recorded as “no binding”. In test [11], it took 91.4 nM to reach a half-maximal effect (EC50). This molecule registered a Top in test [12] of 8440 gMFI.

B4: GBT-IgA-0032 (T25) (antibody, V domains shown)
VH: QVQLVESGGGVVQPGRSLRLSCAASGFTFSSYGMHWVRQAPGKGLEWVAVISYDGSNKYYADSVKGRFTISRDNSKNTLYLQMNSLRAEDTAVYYCAKLYGGNPKDTIYHWGRGTLVTVSS
VL: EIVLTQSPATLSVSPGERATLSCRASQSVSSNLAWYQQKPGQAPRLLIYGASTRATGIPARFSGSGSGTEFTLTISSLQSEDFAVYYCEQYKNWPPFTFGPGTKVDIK
Consider B4, for which, in test [13], a half-maximal response (EC50) required 2.9 nM and the “fold MFI compared to H05” value is around 4 fold. For the same molecule, the binding result in test [10] is given as “no binding”. In test [14], this molecule displayed a half-maximal effective concentration (EC50) of 2.99 nM. Moreover, the Top in test [12] stood at 33700 gMFI.

B5: Fab of GBT-IgA-0027 (Fab-0027) (Fab, V domains shown)
VH: QVQLVESGGGVVQPGRSLRLSCAASGFTFSSYGMHWVRQAPGKGLEWVAVISYDGSNKYYADSVKGRFTISRDNSKNTLYLQMNSLRAEDTAVYYCAKLYGGNPKDTIYHWGRGTLVTVSS
VL: not shown
notes: Fab; constant parts not specified; antigen and Fab are written here as two molecules; also called VH-Fab-0027; T18 Fab
Take B5: the binding result in the test with Long MIGIS-α form and with Short MIGIS-α form was “binds” each time.

B6: GBT-IgA-0071 (T18 in one armed format) (antibody)
heavy: not shown
chain: EPKSSDKTHTCPPCPAPEAAGAPSVFLFPPKPKDTLMISRTPEVTCVVVDVSHEDPEVKFNWYVDGVEVHNAKTKPREEQYNSTYRVVSVLTVLHQDWLNGKEYKCKVSNKALPAPIEKTISKAKGQPREPQVYTLPPCREEMTKNQVSLSCAVKGFYPSDIAVEWESNGQPENNYKTTPPVLDSDGSFFLVSKLTVDKSRWQQGNVFSCSVMHEALHNRYTQKSLSLSPGK
light: not shown
notes: One-armed antibody; also called T18 OAA
By koff is commonly meant a measure of how fast the partners let go of each other. By kon is commonly meant the second-order rate constant of association. With B6, the “fold improved affinity over GBT-IgA-0070 (H05 OAA)” value in test [15] is around 20 fold. In test [16], the “fold improved binding over GBT-IgA-0070 (H05 OAA)” value is around 5 fold. Also, in [17], the “Fold Diff EC50 (OAA format in IgA Ramos by FLOW)” value is 1 fold. Also, in test [18], the affinity, expressed as Kd, was 10.7 nM; the koff came to 0.0316 s⁻¹; the on-rate constant (kon) was 2.96e+06 M⁻¹ s⁻¹. Besides, in test [19], binding was put at a Kd of 11.9 nM, the koff was found to be 0.0132 s⁻¹ and the kon is 1.1e+06 M⁻¹ s⁻¹.
